1 substance from patent US20260092267 can be followed below.

The data set deals with H3K4 histone substrate (histone H3).

With “SETD7-dCas9 protein (purified from pET-SETD7-dCas9-NLS-6×His)”, the “in vitro H3K4 methylation activity” value is “the SETD7-dCas9 protein was confirmed to have H3K4 methylation activity with H3K4 histone substrate through in vitro analysis”.
